Experiments:
Experiment in all cases: cell_activity
Conditions in all cases: primary human T cells; as pair; two GMCSF TALEN constructs used, value not split by construct
[1] = test system: GMCSF_Tal_1 TALEN left monomer (artificial)
[2] = test system: GMCSF_Tal_1 TALEN right monomer (artificial)
[3] = test system: GMCSF_Tal_2 TALEN left monomer (artificial)
[4] = test system: GMCSF_Tal_2 TALEN right monomer (artificial)

TGTGGCTGCAGAGCCTG (double strand) [GMCSF_Tal_1 left half-site]
activity (% reduction in GMCSF secretion) [1]: 90

CACTGTGGCCTGCAGCA (double strand) [GMCSF_Tal_1 right half-site]
activity (% reduction in GMCSF secretion) [2]: 90

TCCTGAACCTGAGTAGA (double strand) [GMCSF_Tal_2 left half-site]
activity (% reduction in GMCSF secretion) [3]: 90

TGAGATGGTAAGTGAGA (double strand) [GMCSF_Tal_2 right half-site]
activity (% reduction in GMCSF secretion) [4]: 90
